Test results: article doi:10.1101/2024.04.06.588386, “Structural plasticity of 2A proteins in the Parechovirus family” (bioRxiv, 2024)

Target: the molecule itself
Test: SEC-SAXS; Superdex S75 Increase 5/150; 20 mM Hepes-NaOH pH 7.4, 150 mM NaCl, 4 mM TCEP, 1% v/v glycerol; molecular weight estimates and fit of crystallographic dimers (CRYSOL, NMA)

B1: HPeV1-2A^FL (full-length 2A^H/NC protein of human parechovirus 1) (natural protein)
chain: SPYGQQPQNRMMKLAYLDRGFYKHYGIIVGDHVYQLDSDDIFKTALTGKAKFTKTKLTSDWVIEEECELDYFRIKYLESAVDSEHIFSVDKNCETIAKDIFGTHTLSQHQAIGLVGTILLTAGLMSTIKTPVNAVTIKEFFNHAIDGDEQ
notes: also called full-length HPeV1-2A
Q: With B1 as the protein, how does the “stoichiometry N” value read?
A: 2
